# Measurements as given in US20110172153A1 (GENERAL HOSPITAL, published 2011).
# Square brackets hold non-standard residues; d marks the D form. Ends that are not written are not given here. hArg = N=C(N)NCCCC[C@H](N)C(=O)O; Nle = CCCC[C@H](N)C(=O)O; Aib = CC(C)(N)C(=O)O
# T1: human parathyroid hormone receptor (PTHR) (human, UniProt Q03431 27-593)
# T1 sequence: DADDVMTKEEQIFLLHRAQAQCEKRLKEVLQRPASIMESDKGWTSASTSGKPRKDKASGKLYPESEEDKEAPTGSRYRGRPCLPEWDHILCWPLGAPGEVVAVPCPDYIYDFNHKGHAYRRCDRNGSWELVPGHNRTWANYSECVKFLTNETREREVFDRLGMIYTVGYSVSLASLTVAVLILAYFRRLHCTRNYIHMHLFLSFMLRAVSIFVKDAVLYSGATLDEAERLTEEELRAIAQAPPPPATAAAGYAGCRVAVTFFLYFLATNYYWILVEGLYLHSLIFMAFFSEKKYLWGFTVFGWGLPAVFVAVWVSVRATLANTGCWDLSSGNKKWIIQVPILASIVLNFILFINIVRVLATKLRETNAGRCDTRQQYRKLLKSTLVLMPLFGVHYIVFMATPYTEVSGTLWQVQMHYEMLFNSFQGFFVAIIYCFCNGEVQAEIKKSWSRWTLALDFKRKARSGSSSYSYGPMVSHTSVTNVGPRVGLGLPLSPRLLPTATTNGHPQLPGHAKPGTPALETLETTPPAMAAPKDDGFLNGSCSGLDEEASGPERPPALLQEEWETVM
# T2: rat parathyroid hormone receptor (PTHR) (rat, UniProt P25961 27-591)
# T2 construct: Endogenous in ROS17/2.8 cells (membranes or intact cells); also called rat PTHR; rat PIR
# T2 sequence: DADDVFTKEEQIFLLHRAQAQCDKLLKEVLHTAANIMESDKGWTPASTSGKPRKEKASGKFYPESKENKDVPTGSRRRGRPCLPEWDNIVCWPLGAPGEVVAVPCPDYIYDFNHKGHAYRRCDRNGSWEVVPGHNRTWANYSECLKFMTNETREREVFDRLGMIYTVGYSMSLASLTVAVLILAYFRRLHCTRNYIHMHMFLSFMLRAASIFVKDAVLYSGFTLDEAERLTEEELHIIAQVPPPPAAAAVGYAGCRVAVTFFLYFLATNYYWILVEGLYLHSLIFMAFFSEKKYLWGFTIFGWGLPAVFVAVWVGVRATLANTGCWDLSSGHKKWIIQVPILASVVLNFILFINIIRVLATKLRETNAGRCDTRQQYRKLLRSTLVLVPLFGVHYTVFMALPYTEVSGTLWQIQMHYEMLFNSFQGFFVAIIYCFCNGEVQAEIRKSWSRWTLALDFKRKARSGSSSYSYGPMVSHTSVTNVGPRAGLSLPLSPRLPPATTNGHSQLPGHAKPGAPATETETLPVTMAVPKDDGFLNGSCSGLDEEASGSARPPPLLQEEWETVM
# Columns and labels:
# PTHR-CFPIC3/YFPCT = PTHR-CFPIC3/YFPCT (human); assay: cell-based or functional assay
# [1] = biological target: T1, human parathyroid hormone receptor …; assay: cell-based or functional assay
# [2] = biological target: T1, human parathyroid hormone receptor …; assay: ratio of R0 IC50 to RG IC50, hPTHR
# [3] = biological target: T2, rat parathyroid hormone receptor (PTHR); assay: competition radioligand binding, rat PIR R0
# [4] = biological target: T2, rat parathyroid hormone receptor (PTHR); assay: competition radioligand binding, rat PIR RG
# [5] = biological target: T1, human parathyroid hormone receptor …; assay: competition radioligand binding, human PIR R0
# Description: (§1) Binding Studies. Binding studies were performed using cell membranes as described (Dean et al., Mol Endocrinol 20(4):931-43 (2006)). […] Reactions contained a total membrane protein concentration of 20 to 100 μg/mL, and a total radioactivity concentration of approximately 150,000 cpm/ml. Unlabeled peptide ligands and/or GTPγS (Sigma-Aldrich Inc. St. Louis, Mo.) were added to the reactions as indicated. At the end of the reaction, bound and free radioligand were separated by vacuum filtration using a 96-well vacuum filter plate and vacuum filter apparatus (Multi-Screen system with Durapore HV, […] filters; Millipore Corp., Milford, Mass.); the air-dried filters were then detached from the plate and counted for gamma radioactivity using a gamma counter.
# (§2) To assess the capacities of various unlabeled peptide ligands to bind to the G protein-uncoupled and G protein-coupled PTHR conformations (R⁰ and RG, respectively), membranes were prepared from transiently transfected COS-7 cells and the following assay conditions.
# [6] = biological target: T1, human parathyroid hormone receptor …; assay: competition radioligand binding, human PIR RG
# Description: as §1, §2
# [7] = biological target: T1, human parathyroid hormone receptor …; assay: competition radioligand binding, hPTHR R0 conformation
# Description: as §1, §2
# [8] = biological target: T1, human parathyroid hormone receptor …; assay: competition radioligand binding, hPTHR RG conformation
# Description: as §1, §2
# [9] = biological target: T2, rat parathyroid hormone receptor (PTHR); assay: near-equilibrium radioligand binding, ROS17/2.8 membranes
# [10] = biological target: T1, human parathyroid hormone receptor …; assay: ratio of R0 IC50 to RG IC50, human PTH1 receptor
# [11] = biological target: T1, human parathyroid hormone receptor …; assay: competition radioligand binding, human PTH1 receptor R0
# Description: as §1, §2
# [12] = biological target: T1, human parathyroid hormone receptor …; assay: competition radioligand binding, human PTH1 receptor RG
# Description: as §1, §2
binder,measurement,setting,value
SVSEIQLMHNLGKHLNSMERVEWLRKKLQDVHNF [hPTH(1-34)],t1/2 of the reduction in FRET signal,PTHR-CFPIC3/YFPCT,0.7 s
"AVSEHQLLHDKGKSIQDARRRAFLLKLI-NH2 (not fully specified, also called [Ala^18,22,Leu^25,Lys^26]-PTHrP(1-28); AALK-PTHrP(1-28)) [A18,22,L25,K26-PTHrP(1-28)NH]","cAMP in HKRK-B7 cells, EC50",[1],0.52 nM
same,"cAMP in HKRK-B7 cells, Max",[1],56.4 pm/well
same,R0/RG selectivity,[2],6970
same,IC50,[3],34.9 nM
same,IC50,[4],0.16 nM
same,IC50,[5],310 nM
same,IC50,[6],0.04 nM
same,IC50,[7],310 nM
same,IC50,[8],0.04 nM
"[Aib]V[Aib]EIQLMHQ[hArg]AKW-NH2 (N-terminus assumed; SMILES CC[C@H](C)[C@H](NC(=O)[C@H](CCC(=O)O)NC(=O)C(C)(C)NC(=O)[C@@H](NC(=O)C(C)(C)N)C(C)C)C(=O)N[C@@H](CCC(N)=O)C(=O)N[C@@H](CC(C)C)C(=O)N[C@@H](CCSC)C(=O)N[C@@H](Cc1c[nH]cn1)C(=O)N[C@@H](CCC(N)=O)C(=O)N[C@@H](CCCCNC(=N)N)C(=O)N[C@@H](C)C(=O)N[C@@H](CCCCN)C(=O)N[C@@H](Cc1c[nH]c2ccccc12)C(N)=O) [[Aib^1,3,Gln^10,Har^11,Ala^12,Trp^14]rPTH(1-14)NH2]",t1/2 of the FRET response,PTHR-CFPIC3/YFPCT,0.5 s
"AVSEIQLXHNLGKHLASVERXQWLRKKLQDVHNY (125I label (oxidative chloramine-T procedure); Nle at 8 and 21; C-terminal amide, Radioligand; tracer of the R0 assay) [^125I-[Nle^8,21,Tyr^34]rPTH(1-34)NH2]",binding result,[9],binds
"AVSEIQLLHDKGKSIQDLRRRFFLHHLIAEIHTAEY-NH2 [[Ile^5,Tyr^36]hPTHrP(1-36)NH2]",t1/2 of the FRET response,PTHR-CFPIC3/YFPCT,0.5 to 0.7 s
"AVSEIQLLHDKGKSIQDLRRRFFLHHLIAEIHTAEY-NH2 (also: 125I label, site not given here, Radioligand) [^125I-[Ile^5,Tyr^36]PTHrP(1-36)NH2]",binding result,[9],binds
"AVSEHQLLHDKGKSIQDERRRAFLLKLIAE-NH2 (also called EALK-PTHrP(1-30)) [E18,A22,L25,K26-PTHrP(1-30)NH]",R0/RG selectivity,[2],11200
same,IC50,[3],76.3 nM
same,IC50,[4],0.21 nM
same,IC50,[5],945 nM
same,IC50,[6],0.08 nM
same,R0/RG ratio,[10],11800
same,IC50,[7],945 nM
same,IC50,[8],0.08 nM
same,IC50,[11],945 nM
same,IC50,[12],0.08 nM
"[Aib]V[Aib]EIQL[Nle]HQ[hArg]AKWY-NH2 (also: 125I label, site not given here, Radioligand; tracer of the RG assay) [^125I-[Aib^1,3,M]PTH(1-15)NH2]",binding result,[9],binds
"AVSEHQLLHDKGKSIQDERRRAFLHHKIAEI-NH2 (Name as printed (K27)) [E18,A22,K27-PTHrP(1-31)NH]",IC50,[3],54.8 nM
same,IC50,[4],0.23 nM
